Measured values from US20070105162A1, “Monovalent avidin and streptavidin compositions” (Massachusetts Institute of Technology, priority 2005, published 2007).

Assays:
[1] = Subunit exchange of monovalent streptavidin over time by SDS-PAGE; format: physicochemical; conditions: for A1D3 rearranged into D4: PBS
Experimental: Methods described in the Methods section above herein were used for the following production and testing of monovalent streptavidin. Tests were performed to determine whether monovalent streptavidin would rearrange its subunit composition over time.

[2] = Thermostability assay of streptavidin tetramer (SDS-PAGE); format: physicochemical; conditions: 100° C., 3 min in PBS
[3] = tested on: biotinylated AP-neuroligin-1 on hippocampal neurons; experiment: AP-neuroligin-1 clustering in hippocampal neurons labeled with streptavidin; format: cell-based, rat; conditions: two hour incubation at 37° C., Alexa Fluor 568 conjugate; ± s.e.m., n=9
Experimental: HeLa cells were grown in Dulbecco's Modified Eagle Medium (DMEM) with 10% Fetal Calf Serum, 50 U/mL penicillin and 50 μg/mL streptomycin. HeLa stably expressing AP-CFP-TM or Ala-CFP-TM have been previously described (Howarth, M. et al., Proc. Natl. Acad. Sci. USA 102: 7583-7588, 2005). Dissociated primary neuronal cultures were prepared from Embryonic Day 18 or 19 (E18/19) rats and transfected with Lipofectamine 2000 at DIV6 as in Levinson et al. (Levinson, J. N. et al., J. Biol. Chem. 280: 17312-17319, 2005). […]
Images of HeLa cells were collected on a Zeiss Axiovert 200M inverted epifluorescence microscope using a 40× oil-immersion lens and a MicroMAX CCD camera (Roper Scientific; Tucson, Ariz.). CFP (420DF20 excitation, 450DRLP dichroic, 475DF40 emission) and Alexa568 (560DF20 excitation, 585DRLP dichroic, 605DF30 emission) images were collected and analyzed using OpenLab software (Improvision; Lexington, Mass.). Fluorescence images were background-corrected. […] Images were scaled to 16 bits and analyzed in Northern Eclipse (Empix Imaging; Ontario, Canada) with user-written software. […] Results were then calculated in terms of clusters per micrometer of dendrite. For assessment of pre-synaptic terminals, clusters were determined as before and average grey levels of clusters were compared between transfected dendrites and untransfected dendrites within the same field of view. […]

[4] = Subunit exchange of monovalent avidin over time by SDS-PAGE; format: physicochemical
Experimental: (§1) Methods described in the Avidin Methods section above herein are used for the following production and testing of monovalent avidin. Tests are performed to determine whether monovalent avidin will rearrange its subunit composition over time. […] Wild-type avidin and A1D3 are heated in PBS at various temperatures and tetramer disassembly is determined by SDS-PAGE.

[5] = Thermostability assay of avidin tetramer (SDS-PAGE); format: physicochemical; conditions: 100° C., PBS
Experimental: 2.3 μM wild-type avidin or chimeric avidin in PBS is heated at the indicated temperature for 3 min in a PTC-200 PCR machine (MJ Research; Waltham, Mass.) and then immediately placed on ice (Bayer, E. A. et al. Electrophoresis 17: 1319-1324, 1996). Samples are mixed with 6×SDS-PAGE loading buffer and loaded onto a 16% polyacrylamide gel.
as §1

[6] = Kd of D4 by 3H-biotin binding and protein precipitation; conditions: 24 μM D4, increasing 3H-biotin (0-500 μM), >20 hr room temperature; ± s.e.m.
Experimental: After incubation at room temperature for 20 hr, the protein was precipitated by adding 50 μL to 200 μL 0.2 M ZnSO4 followed by 200 μL 0.2 M NaOH. The protein precipitate was pelleted by centrifugation at 16,500 g for 5 min. The biotin bound by D4 was calculated from the total ^3H-biotin added minus the ^3H-biotin in the supernatant. The Kd was obtained using a nonlinear regression analysis (one-site binding hyperbola) with SigmaPlot (Systat Software; Point Richmond, Calif.).

[7] = 37° C. one day or room temperature one week

| Kd [6] [µM] | Substance | A1D3 rearranged into D4 ([1]; 37° C. incubation for one day) [%] | Formation of A2D2 from subunit exchange [1, 7] | A1D3 rearranged into D4 ([1]; room temperature incubation for one week) [%] | fraction remaining tetrameric on heating [2] | AP-neuroligin-1 clusters per micrometer of dendrite [3] [clusters/μm] | A1D3 avidin rearranged into D4 ([4]; 37° C. for one day or room temperature for one week) | Formation of A2D2 from subunit exchange [4, 7] | fraction remaining tetrameric on heating [5] |
| --- | --- | --- | --- | --- | --- | --- | --- | --- | --- |
|  | A1D3: Monovalent streptavidin tetramer: one His6-tagged wild-type (A) subunit and three dead (D) subunits [Tetramer A1D3] | 2 | not detected | 3 | significant fraction | 0.087±0.021 | small percentage | not detected | significant fraction |
| 918 ± 0.0117 | D4: Streptavidin tetramer with 4 dead subunits (D: N23A, S27D, S45A, SEQ ID NO:3) [Tetramer D4] |  |  |  |  |  |  |  |  |
